In US20230002466A1 (ELPIS BIOPHARMACEUTICALS, published 2023):

T1: recombinant His-tagged human IL2Rβ (human, UniProt P14784 27-239)
T1 construct: also called hIL2Rβ; not shown: His tag
T1 sequence (looked up): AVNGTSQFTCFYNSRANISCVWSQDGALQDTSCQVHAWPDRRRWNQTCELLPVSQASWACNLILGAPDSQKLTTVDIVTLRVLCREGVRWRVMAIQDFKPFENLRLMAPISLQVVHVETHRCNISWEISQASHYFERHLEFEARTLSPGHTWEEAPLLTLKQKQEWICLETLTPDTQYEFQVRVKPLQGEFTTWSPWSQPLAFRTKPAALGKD

T2: human IL2Rβ Fc fusion protein (human, UniProt P14784 27-239)
T2 construct: also called Recombinant Fc-tagged human IL2Rβ; not shown: Fc
T2 sequence (looked up): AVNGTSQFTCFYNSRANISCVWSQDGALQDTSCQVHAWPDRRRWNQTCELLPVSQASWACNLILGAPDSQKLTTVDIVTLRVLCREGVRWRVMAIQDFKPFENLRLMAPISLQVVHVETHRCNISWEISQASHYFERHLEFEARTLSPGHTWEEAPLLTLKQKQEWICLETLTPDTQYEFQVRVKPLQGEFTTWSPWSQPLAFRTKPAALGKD

T3: human IL2Rα Fc fusion protein (human, UniProt P01589 22-213, limits assumed)
T3 construct: also called Recombinant Fc-tagged human IL2Rα; not shown: Fc
T3 sequence (looked up): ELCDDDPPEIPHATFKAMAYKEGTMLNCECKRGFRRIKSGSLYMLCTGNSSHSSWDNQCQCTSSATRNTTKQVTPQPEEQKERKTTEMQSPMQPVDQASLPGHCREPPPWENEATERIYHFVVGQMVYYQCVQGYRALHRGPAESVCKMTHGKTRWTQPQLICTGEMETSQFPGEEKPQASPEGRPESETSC

T4: human IL2Rβ (human, UniProt P14784 27-239)
T4 construct: also called IL2β; CD122
T4 sequence (looked up): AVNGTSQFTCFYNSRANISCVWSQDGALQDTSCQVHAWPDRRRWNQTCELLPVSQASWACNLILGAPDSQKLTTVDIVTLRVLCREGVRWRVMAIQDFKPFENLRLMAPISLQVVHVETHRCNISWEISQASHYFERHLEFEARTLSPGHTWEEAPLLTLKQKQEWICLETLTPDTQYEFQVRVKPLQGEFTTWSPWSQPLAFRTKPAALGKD

T5: human IL2Rα (human, UniProt P01589 22-213, limits assumed)
T5 construct: also called IL2α; CD25
T5 sequence (looked up): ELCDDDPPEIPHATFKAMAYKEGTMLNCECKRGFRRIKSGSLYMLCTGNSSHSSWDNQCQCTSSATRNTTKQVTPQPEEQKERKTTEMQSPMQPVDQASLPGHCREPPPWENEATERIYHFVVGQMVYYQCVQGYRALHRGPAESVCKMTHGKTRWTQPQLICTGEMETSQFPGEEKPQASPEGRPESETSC


Assays:
[1] = target: T1, recombinant His-tagged human IL2Rβ; assay: SPR (Biacore T200): Fc fusion captured on anti-hFc chip, IL2Rβ-HIS injected in 2-fold dilutions from 100 nM
Description: Binding kinetics of monovalent IL2Rβ Fc fusion proteins have been analyzed by SPR technology with Biacore T200. Briefly, anti-hFc antibody was immobilized on flow cell 1 and 2. For each cycle, 1 ug/mL of IL2 Fc fusion protein was captured for 60 seconds at flow rate of 10 ul/min on flow cell 2 in 1×HBSP buffer on anti-hFc immobilized chip. 100 nM IL2Rα-HIS tagged or IL2Rβ-HIS tagged was 2-fold serial diluted and injected onto both reference flow cell 1 and IL2 Fc fusion protein were captured at flow cell 2 for 150 seconds at flow rate of 30 ul/mins. 300 seconds wash was applied after the last injection. The assay was set up with 8 serial diluted concentration points in 96 well format. The kinetics data was analyzed with Biacore T200 evaluation software 3.0. The specific binding response unit was derived from subtraction of binding to reference flow cell 1 from target flow cell 2 (FIGS. 39A-39D).

[2] = target: T2, human IL2Rβ Fc fusion protein; assay: ELISA, receptor-Fc coated, anti-Flag HRP
Description: (§1) Briefly, 384 well plate was immobilized with human IL2Rα and IL2Rβ Fc fusion proteins at a final concentration of 2 ug/mL in 1×PBS in total volume of 25 uL per well. The plate was incubated overnight at 4 C and blocked with 80 uL of superblock per well for 1 hour. […] Each dilution was added to IL2Rα or IL2Rβ wells in parallel in duplicates. The IL2 mutant binding was detected by adding 25 uL of anti-Flag HRP diluted at 1:5000 in 1×PBST. In between each step, the plate was washed three times with 1×PBST using a plate washer. The plate was then developed with 25 uL of TMB substrate for five minutes and stopped by adding 25 ul of 2N sulfuric acid. The plate was read at OD450 nm Biotek plate reader and the EC50 was analyzed with Prism 8.1 software to generate EC50 values (FIG. 15A for IL2Rα, and FIG. 15B for IL2Rβ, summarized in Table 9).

[3] = target: T3, human IL2Rα Fc fusion protein; assay: ELISA, receptor-Fc coated, anti-Flag HRP
Description: as §1

human IL2Rβ [4] = target: T4, human IL2Rβ; assay: SPR, receptor captured on Protein A chip, mammalian-produced IL2
Description: (§2) The assay was run with Biacore T200 control software version 2.0. For each cycle, 1 μg/mL of human IL2Rβ or IL2Rα was captured for 60 seconds at flow rate of 10 μL/min on flow cell 2 in 1×HBST buffer on Protein A sensor chip. Two-fold serial diluted HIS tag purified engineered IL2 mutant was injected onto both reference flow cell 1 and IL2Rβ or IL2Rα captured flow cell 2 for 150 seconds at flow rate of 30 μL/min followed by washing for 300 seconds. The flow cells were then regenerated with Glycine pH 2 for 40 seconds at a flow rate of 30 μL/mins. Eight concentration points from 0 to 100 nM were assayed for each IL2Rβ agonist clone 96-well plate format. The kinetics data was analyzed with Biacore T200 evaluation software 3000. The specific binding response unit was derived from subtraction of binding to reference flow cell 1 from target flow cell 2.

human IL2Rα [5] = target: T5, human IL2Rα; assay: as above
Description: as §2

human IL2Rβ [6] = target: T4, human IL2Rβ; assay: SPR, receptor captured on Protein A chip, E. coli-produced IL2
Description: as §2

human IL2Rα [7] = target: T5, human IL2Rα; assay: as above
Description: as §2

human IL2Rα [8] = target: T5, human IL2Rα; assay: SPR, IL2Rα captured on Protein A chip, IL2 at 100 nM
Description: The binding kinetics of IL2Rα-reduced binding clones to IL2Rα was assessed utilizing SPR technology with a Biacore T200, software version 2.0. For each cycle, 1 ug/mL of human IL2Rα was captured for 60 seconds at a flow rate of 10 uL/min on flow cell 2 in 1×HBSP buffer on a Protein A sensor chip. 100 nM of each HIS and Flag tag purified IL2 mutant was injected onto both the reference flow cell 1 and IL2Rα captured flow cell 2 for 150 seconds at a flow rate of 30 uL/min followed by washing for 300 seconds. The flow cells were then regenerated with Glycine pH 2.0 for 60 seconds at a flow rate of 30 uL/min. A HBSP+ buffer was included with each sample as a baseline control. The assay was set up in a 96-well format. The kinetics data was analyzed with Biacore T200 evaluation software 3.0. The specific binding response unit was derived from subtraction of binding to reference flow cell 1 from IL2Rα flow cell 2 and subtraction of buffer control. […] Relative response (RU) was determined for each IL2Rα-reduced binding clone (FIG. 4, Table 3).

human IL2Rα [9] = target: T5, human IL2Rα; assay: IL2Rα binding ELISA with E. coli culture supernatant of the clone; hFc bar as control (Example 2)

Kd [1]	koff [1]	kon [1]	EC50 [2]	EC50 [3]	Kd (human IL2Rβ [4])	koff (human IL2Rβ [4])	kon (human IL2Rβ [4])	relative activity IL2Rβ (KD: fold) against WT IL2 (human IL2Rβ [4])	Kd (human IL2Rα [5])	relative activity IL2Rα (KD: fold) against WT IL2 (human IL2Rα [5])	Kd (human IL2Rβ [6])	koff (human IL2Rβ [6])	kon (human IL2Rβ [6])	relative activity IL2Rβ (KD: fold) against WT IL2 (human IL2Rβ [6])	Kd (human IL2Rα [7])	relative activity IL2Rα (KD: fold) against WT IL2 (human IL2Rα [7])	RU (at 100 nM) (human IL2Rα [8])	Relevant binding to WT IL2 (%) (human IL2Rα [8])	Binder	binding result (human IL2Rα [9])
–	–	–	1.8 nM	538 nM	0.145 nM	0.000376 s⁻¹	2.59e+06 M⁻¹ s⁻¹	6970 fold	302 nM	-22.4 fold	0.123 nM	0.00027 s⁻¹	2.18e+06 M⁻¹ s⁻¹	35200 fold	21.4 nM	-2.3 fold	40.8 RU	28.7%	EP003 (ligand, Produced in E. coli or mammalian cells; also called EP03; EP0003; not shown: C-terminal Flag and 6xHis tags) APTSSSTKKTQLQLEHLLLDLQMILNGINNYKNPKLTRMLTFKFYMPKKATELKHLQCLEEELKPLEEVLNLAQSKNFHLGVTDSISNAIVLARELKGSETTFMCEYADETATIVEFLNRWITFCQSIISTLT	–
–	–	–	–	–	0.414 nM	0.00215 s⁻¹	5.18e+06 M⁻¹ s⁻¹	2420 fold	28.8 nM	-2.1 fold	0.62 nM	0.00189 s⁻¹	3.05e+06 M⁻¹ s⁻¹	7010 fold	40.5 nM	-4.3 fold	–	–	EP004 (ligand, Produced in E. coli or mammalian cells; not shown: C-terminal Flag and 6xHis tags) APTSSSTKKTQLQLEHLLLDLQMILNGINNYKNPKLTRMLTFKFYMPKKATELKHLQCLEEELKPLEEVLNLAQSKNFHLCPTDTIENITVLIQELKGSETTFMCEYADETATIVEFLNRWITFCQSIISTLT	–

The remaining lines, values behind:

Binder	Kd [1]	koff [1]	kon [1]	EC50 [2]	EC50 [3]	Kd (human IL2Rβ [4])	koff (human IL2Rβ [4])	kon (human IL2Rβ [4])	relative activity IL2Rβ (KD: fold) against WT IL2 (human IL2Rβ [4])	Kd (human IL2Rα [5])	relative activity IL2Rα (KD: fold) against WT IL2 (human IL2Rα [5])	Kd (human IL2Rβ [6])	koff (human IL2Rβ [6])	kon (human IL2Rβ [6])	relative activity IL2Rβ (KD: fold) against WT IL2 (human IL2Rβ [6])	Kd (human IL2Rα [7])	relative activity IL2Rα (KD: fold) against WT IL2 (human IL2Rα [7])	RU (at 100 nM) (human IL2Rα [8])	Relevant binding to WT IL2 (%) (human IL2Rα [8])	binding result (human IL2Rα [9])
EP214/EP215 (Fc fusion) APTSSSTKKTQLQLEHLLLDLQMILNGINNYKNPKLTEMLTFKFYMPKKATELKHLQCLEEELKPLEEVLNLAQSKNFHLTARDAVDNMRVIIQELKGSETTFMCEYADETATIVEFLNRWITFSQSIISTLTESKYGPPCPPCPAPEFEGAPSVFLFPPKPKDTLMISRTPEVTCVVVDVSQEDPEVQFNWYVDGVEVHNAKTKPREEQFQSTYRVVSVLTVLHQDWLNGKEYKCKVSNKGLPSSIEKTISKAKGQPREPQVYTLPPCQEEMTKNQVSLWCLVKGFYPSDIAVEWESNGQPENNYKTTPPVLDSDGSFFLYSALTVDKSRWQEGNVFSCSVMHEALHNHYTQKSLSLSLGK Fc: ESKYGPPCPPCPAPEFEGAPSVFLFPPKPKDTLMISRTPEVTCVVVDVSQEDPEVQFNWYVDGVEVHNAKTKPREEQFQSTYRVVSVLTVLHQDWLNGKEYKCKVSNKGLPSSIEKTISKAKGQPREPQVCTLPPSQEEMTKNQVSLSCAVKGFYPSDIAVEWESNGQPENNYKTTPPVLDSDGSFKLVSRLTVDKSRWQEGNVFSCSVMHEALHNHYTQKSLSLSLGK	5.79 nM	0.00883 s⁻¹	1.53e+06 M⁻¹ s⁻¹	–	–	–	–	–	–	–	–	–	–	–	–	–	–	–	–	–
EP126 (ligand) APTSSSTKKTQLQLEHLLLDLQMILNGINNYKNPKLTNMLTFKFSMPKKATELKHLQCLEEELKPLEEVLNLAQSKNFHLRPRDLISNINVIVLELKGSETTFMCEYADETATIVEFLNRWITFSQSIISTLT	–	–	–	–	–	–	–	–	–	–	–	–	–	–	–	–	–	2.6 RU	1.83%	no binding (tested: supernatant, concentration not given)
